Source: publication PMC5506036, “SmMYB36, a Novel R2R3-MYB Transcription Factor, Enhances Tanshinone Accumulation and Decreases Phenolic Acid Content in Salvia miltiorrhiza Hairy Roots”

Molecular target: T1, SmMYB36 (Salvia miltiorrhiza, UniProt A0A059PRJ2 1-160)
T1 sequence: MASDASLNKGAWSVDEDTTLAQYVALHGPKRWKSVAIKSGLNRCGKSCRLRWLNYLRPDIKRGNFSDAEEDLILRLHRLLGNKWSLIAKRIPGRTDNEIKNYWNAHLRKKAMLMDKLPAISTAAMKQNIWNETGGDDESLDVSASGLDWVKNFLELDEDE
Experiment: EMSA; Invitrogen EMSA kit, probe:protein mass ratio 1:15, 10 µL; protein eluted in 50 mM NaH2PO4, 300 mM NaCl, 250 mM imidazole pH 8.0; binding buffer and temperature not given
Details: protein: recombinant; tags: His (pET32a fusion); blunt

B1: MCT-MBS3-1 (dsDNA)
DNA 1: TATCATCTTCGGTAACTGATACTCAAGGAT
DNA 2: ATCCTTGAGTATCAGTTACCGAAGATGATA
Question: Does B1 bind?
Answer: binds

B2: MBSI-2 core (dsDNA)
DNA 1: AAAAAACGGTTA
DNA 2: TAACCGTTTTTT
Question: Does B2 bind?
Answer: binds

B3: DXR-MRE (dsDNA)
DNA 1: CCCCTTTTACAAAACCTAATTTCCCCCCAT
DNA 2: ATGGGGGGAAATTAGGTTTTGTAAAAGGGG
Question: Does B3 bind?
Answer: binds

B4: C4H1-MBS3 (dsDNA)
DNA 1: GTTTAAAAGACATAACTGAGTTATCGAACA
DNA 2: TGTTCGATAACTCAGTTATGTCTTTTAAAC
Question: Does B4 bind?
Answer: binds

B5: MCT-MBS2-1 (dsDNA)
DNA 1: AGGAAACCCTCACGGTCACCTTAACATTCA
DNA 2: TGAATGTTAAGGTGACCGTGAGGGTTTCCT
Question: Does B5 bind?
Answer: binds

B6: C4H1-MBS1 (dsDNA)
DNA 1: TCTTTAAAACTCCAACTGATATGATGTTCG
DNA 2: CGAACATCATATCAGTTGGAGTTTTAAAGA
Question: Does B6 bind?
Answer: binds

B7: MCT-MBS2-2 (dsDNA)
DNA 1: AAAACAGGCATCCGGTCAGTAAGTCCGCAT
DNA 2: ATGCGGACTTACTGACCGGATGCCTGTTTT
Question: Does B7 bind?
Answer: binds

B8: MBS1 core (dsDNA)
DNA 1: CAACTG
DNA 2: CAGTTG
Question: Does B8 bind?
Answer: binds

B9: HPPR-MRE-2 (dsDNA)
DNA 1: AATGATTGATTTAACCTAATCATTGTGAAACC
DNA 2: GGTTTCACAATGATTAGGTTAAATCAATCATT
Question: Does B9 bind?
Answer: binds

B10: IPPI-MBS1 (dsDNA)
DNA 1: CCGCCGCCGCCACAACTGTAATGGTGCTTT
DNA 2: AAAGCACCATTACAGTTGTGGCGGCGGCGG
Question: Does B10 bind?
Answer: binds

B11: GGPPS1-MBS2 (dsDNA)
DNA 1: TTAAAATCGTTACGGTCATACCACGGAAAC
DNA 2: GTTTCCGTGGTATGACCGTAACGATTTTAA
Question: Does B11 bind?
Answer: binds

B12: HPPR-MRE-1 (dsDNA)
DNA 1: TTTTGTGGGACAAACCTAAAAAGAAACTGAA
DNA 2: TTCAGTTTCTTTTTAGGTTTGTCCCACAAAA
Question: Does B12 bind?
Answer: binds

B13: MBSI-1 core (dsDNA)
DNA 1: AAAAAACCGTTA
DNA 2: TAACGGTTTTTT
Question: Does B13 bind?
Answer: binds

B14: MCT-MBS3-2 (dsDNA)
DNA 1: AACTAGATGAATTAACTGGTAGCAATTACC
DNA 2: GGTAATTGCTACCAGTTAATTCATCTAGTT
Question: Does B14 bind?
Answer: binds

B15: 4CL2-MRE (dsDNA)
DNA 1: TTTGTAGAGTTGAACCTAAAGATGATGGGTG
DNA 2: CACCCATCATCTTTAGGTTCAACTCTACAAA
Question: Does B15 bind?
Answer: binds

B16: HMGS1-MBS3 (dsDNA)
DNA 1: GTGTGTGCTGTTTAACTGATCCGCTATTTC
DNA 2: GAAATAGCGGATCAGTTAAACAGCACACAC
Question: Does B16 bind?
Answer: binds

B17: MBSII core (dsDNA)
DNA 1: AAAAGTTAGTTA
DNA 2: TAACTAACTTTT
Question: Does B17 bind?
Answer: binds

B18: GGPPS1-MRE (dsDNA)
DNA 1: TTTTTCGATAGTAACCTAATTTTCTGTAGTG
DNA 2: CACTACAGAAAATTAGGTTACTATCGAAAAA
Question: Does B18 bind?
Answer: binds
